# Measurements published in the supplement of paper PMC11316812.
# ± gives the standard deviation of the averaged measurements.
# Experiments:
# MCF7 = test: percentage of EdU-negative (G0-arrested) nuclei per well, 72 h; higher = more G0 arrest; settings: reference: sequence is the full UniProt precursor, the tested protein was the secreted form or ectodomain
# hTERT-HMEC = test: as above; settings: reference: sequence is the full UniProt precursor, the tested protein was the secreted form or ectodomain
# [1] = protein concentration 0.0065 µM
# [2] = protein concentration 0.0225 µM
# [3] = protein concentration 0.0105714 µM
# [4] = protein concentration 0.105714 µM
# [5] = protein concentration 0.01975 µM
# [6] = protein concentration 0.1975 µM
# [7] = protein concentration 0.01525 µM
# [8] = protein concentration 0.1525 µM
# [9] = protein concentration 0.02382 µM
# [10] = protein concentration 0.03125 µM
# [11] = protein concentration 0.2382 µM
# [12] = protein concentration 0.3125 µM
# 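Also: secreted proteins added to cultured cells, EdU pulse at the end, nuclei found by Hoechst imaging, EdU status from nuclear versus surrounding ring intensity ratio, PBS as neutral control.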
Sequence,percentage of EdU-negative (MCF7; [2]),percentage of EdU-negative (MCF7; protein concentration 0.225 µM),percentage of EdU-negative (hTERT-HMEC; [2]),percentage of EdU-negative (hTERT-HMEC; protein concentration 0.225 µM),further results
MEAVAVAAAVGVLLLAGAGGAAGDEAREAAAVRALVARLLGPGPAADFSVSVERALAAKPGLDTYSLGGGGAARVRVRGSTGVAAAAGLHRYLRDFCGCHVAWSGSQLRLPRPLPAVPGELTEATPNRYRYYQNVCTQSYSFVWWDWARWEREIDWMALNGINLALAWSGQEAIWQRVYLALGLTQAEINEFFTGPAFLAWGRMGNLHTWDGPLPPSWHIKQLYLQHRVLDQMRSFGMTPVLPAFAGHVPEAVTRVFPQVNVTKMGSWGHFNCSYSCSFLLAPEDPIFPIIGSLFLRELIKEFGTDHIYGADTFNEMQPPSSEPSYLAAATTAVYEAMTAVDTEAVWLLQGWLFQHQPQFWGPAQIRAVLGAVPRGRLLVLDLFAESQPVYTRTASFQGQPFIWCMLHNFGGNHGLFGALEAVNGGPEAARLFPNSTMVGTGMAPEGISQNEVVYSLMAELGWRKDPVPDLAAWVTSFAARRYGVSHPDAGAAWRLLLRSVYNCSGEACRGHNRSPLVRRPSLQMNTSIWYNRSDVFEAWRLLLTSAPSLATSPAFRYDLLDLTRQAVQELVSLYYEEARSAYLSKELASLLRAGGVLAYELLPALDEVLASDSRFLLGSWLEQARAAAVSEAEADFYEQNSRYQLTLWGPEGNILDYANKQLAGLVANYYTPRWRLFLEALVDSVAQGIPFQQHQFDKNVFQLEQAFVLSKQRYPSQPRGDTVDLAKKIFLKYYPRWVAGSW,–,–,–,–,percentage of EdU-negative (MCF7; [1]): 24.9 ± 1.1%; percentage of EdU-negative (MCF7; protein concentration 0.065 µM): 26 ± 2.8%; percentage of EdU-negative (hTERT-HMEC; [1]): 4.39 ± 0.1%; percentage of EdU-negative (hTERT-HMEC; protein concentration 0.065 µM): 5.55 ± 0.91%
MARSPGRAYALLLLLICFNVGSGLHLQVLSTRNENKLLPKHPHLVRQKRAWITAPVALREGEDLSKKNPIAKIHSDLAEERGLKITYKYTGKGITEPPFGIFVFNKDTGELNVTSILDREETPFFLLTGYALDARGNNVEKPLELRIKVLDINDNEPVFTQDVFVGSVEELSAAHTLVMKINATDADEPNTLNSKISYRIVSLEPAYPPVFYLNKDTGEIYTTSVTLDREEHSSYTLTVEARDGNGEVTDKPVKQAQVQIRILDVNDNIPVVENKVLEGMVEENQVNVEVTRIKVFDADEIGSDNWLANFTFASGNEGGYFHIETDAQTNEGIVTLIKEVDYEEMKNLDFSVIVANKAAFHKSIRSKYKPTPIPIKVKVKNVKEGIHFKSSVISIYVSESMDRSSKGQIIGNFQAFDEDTGLPAHARYVKLEDRDNWISVDSVTSEIKLAKLPDFESRYVQNGTYTVKIVAISEDYPRKTITGTVLINVEDINDNCPTLIEPVQTICHDAEYVNVTAEDLDGHPNSGPFSFSVIDKPPGMAEKWKIARQESTSVLLQQSEKKLGRSEIQFLISDNQGFSCPEKQVLTLTVCECLHGSGCREAQHDSYVGLGPAAIALMILAFLLLLLVPLLLLMCHCGKGAKGFTPIPGTIEMLHPWNNEGAPPEDKVVPSFLPVDQGGSLVGRNGVGGMAKEATMKGSSSASIVKGQHEMSEMDGRWEEHRSLLSGRATQFTGATGAIMTTETTKTARATGASRDMAGAQAAAVALNEEFLRNYFTDKAASYTEEDENHTAKDCLLVYSQEETESLNASIGCCSFIEGELDDRFLDDLGLKFKTLAEVCLGQKIDINKEIEQRQKPATETSMNTASHSLCEQTMVNSENTYSSGSSFPVPKSLQEANAEKVTQEIVTERSVSSRQAQKVATPLPDPMASRNVIATETSYVTGSTMPPTTVILGPSQPQSLIVTERVYAPASTLVDQPYANEGTVVVTERVIQPHGGGSNPLEGTQHLQDVPYVMVRERESFLAPSSGVQPTLAMPNIAVGQNVTVTERVLAPASTLQSSYQIPTENSMTARNTTVSGAGVPGPLPDFGLEESGHSNSTITTSSTRVTKHSTVQHSYS [J3KSI6],25 ± 1.2%,26.57 ± 0.18%,4.92 ± 0.3%,5.13 ± 0.22%,–
MLLLINVILTLWVSCANGQEVKPCDFPEIQHGGLYYKSLRRLYFPAAAGQSYSYYCDQNFVTPSGSYWDYIHCTQDGWSPTVPCLRTCSKSDVEIENGFISESSSIYILNEETQYNCKPGYATAEGNSSGSITCLQNGWSTQPICIKFCDMPVFENSRAKSNGMWFKLHDTLDYECYDGYESSYGNTTDSIVCGEDGWSHLPTCYNSSENCGPPPPISNGDTTSFPQKVYLPWSRVEYQCQSYYELQGSKYVTCSNGDWSEPPRCISMKPCEFPEIQHGHLYYENTRRPYFPVATGQSYSYYCDQNFVTPSGSYWDYIHCTQDGWLPTVPCLRTCSKSDIEIENGFISESSSIYILNKEIQYKCKPGYATADGNSSGSITCLQNGWSAQPICIKFCDMPVFENSRAKSNGMRFKLHDTLDYECYDGYEISYGNTTGSIVCGEDGWSHFPTCYNSSEKCGPPPPISNGDTTSFLLKVYVPQSRVEYQCQSYYELQGSNYVTCSNGEWSEPPRCIHPCIITEENMNKNNIQLKGKSDIKYYAKTGDTIEFMCKLGYNANTSVLSFQAVCREGIVEYPRCE,24.7 ± 2.6%,28.7 ± 0.4%,4.84 ± 0.38%,4.68 ± 0.36%,–
MVLLRVLILLLSWAAGMGGQYGNPLNKYIRHYEGLSYNVDSLHQKHQRAKRAVSHEDQFLRLDFHAHGRHFNLRMKRDTSLFSDEFKVETSNKVLDYDTSHIYTGHIYGEEGSFSHGSVIDGRFEGFIQTRGGTFYVEPAERYIKDRTLPFHSVIYHEDDINYPHKYGPQGGCADHSVFERMRKYQMTGVEEVTQIPQEEHAANGPELLRKKRTTSAEKNTCQLYIQTDHLFFKYYGTREAVIAQISSHVKAIDTIYQTTDFSGIRNISFMVKRIRINTTADEKDPTNPFRFPNIGVEKFLELNSEQNHDDYCLAYVFTDRDFDDGVLGLAWVGAPSGSSGGICEKSKLYSDGKKKSLNTGIITVQNYGSHVPPKVSHITFAHEVGHNFGSPHDSGTECTPGESKNLGQKENGNYIMYARATSGDKLNNNKFSLCSIRNISQVLEKKRNNCFVESGQPICGNGMVEQGEECDCGYSDQCKDECCFDANQPEGRKCKLKPGKQCSPSQGPCCTAQCAFKSKSEKCRDDSDCAREGICNGFTALCPASDPKPNFTDCNRHTQVCINGQCAGSICEKYGLEECTCASSDGKDDKELCHVCCMKKMDPSTCASTGSVQWSRHFSGRTITLQPGSPCNDFRGYCDVFMRCRLVDADGPLARLKKAIFSPELYENIAEWIVAHWWAVLLMGIALIMLMAGFIKICSVHTPSSNPKLPPPKPLPGTLKRRRPPQPIQQPQRQRPRESYQMGHMRR,–,–,–,–,percentage of EdU-negative (MCF7; [3]): 24.8 ± 1.8%; percentage of EdU-negative (MCF7; [4]): 26.2 ± 1.3%; percentage of EdU-negative (hTERT-HMEC; [3]): 6.02 ± 1.1%; percentage of EdU-negative (hTERT-HMEC; [4]): 6.36 ± 1.3%
MAAAASPAFLLCLPLLHLLSGWSRAGWVDTHCLCYDFIITPKSRPEPQWCEVQGLVDERPFLHYDCVNHKAKAFASLGKKVNVTKTWEEQTETLRDVVDFLKGQLLDIQVENLIPIEPLTLQARMSCEHEAHGHGRGSWQFLFNGQKFLLFDSNNRKWTALHPGAKKMTEKWEKNRDVTMFFQKISLGDCKMWLEEFLMYWEQMLDPTKPPSLAPGTTQPKAMATTLSPWSLLIIFLCFILAGR [Q9BZM6],–,–,–,–,percentage of EdU-negative (MCF7; [5]): 24.2 ± 1.6%; percentage of EdU-negative (MCF7; [6]): 25.4 ± 1.1%; percentage of EdU-negative (hTERT-HMEC; [5]): 4.75 ± 0.89%; percentage of EdU-negative (hTERT-HMEC; [6]): 6.21 ± 1.1%
MIIVAHVLLILLGATEILQADLLPDEKISLLPPVNFTIKVTGLAQVLLQWKPNPDQEQRNVNLEYQVKINAPKEDDYETRITESKCVTILHKGFSASVRTILQNDHSLLASSWASAELHAPPGSPGTSIVNLTCTTNTTEDNYSRLRSYQVSLHCTWLVGTDAPEDTQYFLYYRYGSWTEECQEYSKDTLGRNIACWFPRTFILSKGRDWLAVLVNGSSKHSAIRPFDQLFALHAIDQINPPLNVTAEIEGTRLSIQWEKPVSAFPIHCFDYEVKIHNTRNGYLQIEKLMTNAFISIIDDLSKYDVQVRAAVSSMCREAGLWSEWSQPIYVGNDEHKPLREWFVIVIMATICFILLILSLICKICHLWIKLFPPIPAPKSNIKDLFVTTNYEKAGSSETEIEVICYIEKPGVETLEDSVF,25.4 ± 1.1%,25.9 ± 1.3%,4.86 ± 0.92%,5.18 ± 0.52%,–
MKVTGIFLLSALALLSLSGNTGADSLGREAKCYNELNGCTKIYDPVCGTDGNTYPNECVLCFENRKRQTSILIQKSGPC,24 ± 0.32%,25.6 ± 0.77%,5.21 ± 1.1%,4.61 ± 0.16%,–
MWATLPLLCAGAWLLGVPVCGAAELCVNSLEKFHFKSWMSKHRKTYSTEEYHHRLQTFASNWRKINAHNNGNHTFKMALNQFSDMSFAEIKHKYLWSEPQNCSATKSNYLRGTGPYPPSVDWRKKGNFVSPVKNQGACGSCWTFSTTGALESAIAIATGKMLSLAEQQLVDCAQDFNNHGCQGGLPSQAFEYILYNKGIMGEDTYPYQGKDGYCKFQPGKAIGFVKDVANITIYDEEAMVEAVALYNPVSFAFEVTQDFMMYRTGIYSSTSCHKTPDKVNHAVLAVGYGEKNGIPYWIVKNSWGPQWGMNGYFLIERGKNMCGLAACASYPIPLV,–,–,–,–,percentage of EdU-negative (MCF7; [7]): 27 ± 2.4%; percentage of EdU-negative (MCF7; [8]): 29.3 ± 4.1%; percentage of EdU-negative (hTERT-HMEC; [7]): 5.31 ± 0.13%; percentage of EdU-negative (hTERT-HMEC; [8]): 8.87 ± 0.59%
MQRLCVYVLIFALALAAFSEASWKPRSQQPDAPLGTGANRDLELPWLEQQGPASHHRRQLGPQGPPHLVADPSKKQGPWLEEEEEAYGWMDFGRRSAEDEN,–,–,–,–,percentage of EdU-negative (MCF7; [9]): 24.94 ± 0.082%; percentage of EdU-negative (MCF7; [10]): 29.3 ± 0.76%; percentage of EdU-negative (MCF7; [11]): 27.1 ± 1.1%; percentage of EdU-negative (MCF7; [12]): 26.7 ± 1.6%; percentage of EdU-negative (hTERT-HMEC; [9]): 4.78 ± 0.41%; percentage of EdU-negative (hTERT-HMEC; [10]): 4.9 ± 0.48%; percentage of EdU-negative (hTERT-HMEC; [11]): 7.18 ± 0.61%; percentage of EdU-negative (hTERT-HMEC; [12]): 10.5 ± 2%
MNGFASLLRRNQFILLVLFLLQIQSLGLDIDSRPTAEVCATHTISPGPKGDDGEKGDPGEEGKHGKVGRMGPKGIKGELGDMGDQGNIGKTGPIGKKGDKGEKGLLGIPGEKGKAGTVCDCGRYRKFVGQLDISIARLKTSMKFVKNVIAGIRETEEKFYYIVQEEKNYRESLTHCRIRGGMLAMPKDEAANTLIADYVAKSGFFRVFIGVNDLEREGQYMFTDNTPLQNYSNWNEGEPSDPYGHEDCVEMLSSGRWNDTECHLTMYFVCEFIKKKK [Q9Y6Z7],24.36 ± 0.1%,29.1 ± 0.55%,5.319 ± 0.012%,7.17 ± 1.1%,–
MASEIHMTGPMCLIENTNGRLMANPEALKILSAITQPMVVVAIVGLYRTGKSYLMNKLAGKKKGFSLGSTVQSHTKGIWMWCVPHPKKPGHILVLLDTEGLGDVEKGDNQNDSWIFALAVLLSSTFVYNSIGTINQQAMDQLYYVTELTHRIRSKSSPDENENEVEDSADFVSFFPDFVWTLRDFSLDLEADGQPLTPDEYLTYSLKLKKGTSQKDETFNLPRLCIRKFFPKKKCFVFDRPVHRRKLAQLEKLQDEELDPEFVQQVADFCSYIFSNSKTKTLSGGIQVNGPRLESLVLTYVNAISSGDLPCMENAVLALAQIENSAAVQKAIAHYEQQMGQKVQLPTETLQELLDLHRDSEREAIEVFIRSSFKDVDHLFQKELAAQLEKKRDDFCKQNQEASSDRCSALLQVIFSPLEEEVKAGIYSKPGGYRLFVQKLQDLKKKYYEEPRKGIQAEEILQTYLKSKESMTDAILQTDQTLTEKEKEIEVERVKAESAQASAKMLQEMQRKNEQMMEQKERSYQEHLKQLTEKMENDRVQLLKEQERTLALKLQEQEQLLKEGFQKESRIMKNEIQDLQTKMRRRKACTIS,26.5 ± 3.6%,29.1 ± 1.2%,4.44 ± 0.5%,12.6 ± 1.4%,–
